B1: RIT1 (parent)
chain: FHALVREIRRKEKEAVLAMEKKSK

Variants of: B1
Assay: protein stability index of a GFP-peptide fusion (GPS, HEK-293T) (PSI 1-6); higher = more stable
Conditions: c terminus: a fixed tail appended
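Further: lentivirally expressed fusions sorted by FACS into six bins by GFP to DsRed ratio, PSI derived from sequencing read proportions per bin multiplied by bin number.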

Protein stability index of substitutions, site by site:
K21: Y 1.56, E 1.39, F 2.74, A 1.9, Q 2.66, H 2.68, M 1.28, W 2.48, N 1.77, L 2.2, S 1.56, D 2.14, G 2.17, C 1.99, I 1.41, T 2.11, V 3.01, P 2.17
V16: M 1.66, W 2.27, H 2.47, Q 2.22, R 2.69, G 1.7, T 1.57, Y 1.95, I 1.36, A 2.26, D 1.3, E 2.59, N 1.42, K 1.81, S 2.64, F 2.45, P 2.62, L 2.05
E12: N 2.45, M 3.96, T 2.42, S 3, G 2.28, C 1.81, V 2.48, I 3.76, A 3.79, L 1.81, R 2.06, F 1.64, D 2.13, H 2.05, Q 1.89, Y 2.69, K 2.03
E7: M 2.82, T 1.5, H 1.97, I 2.24, G 1.62, F 1.82, A 2.79, D 1.8, N 2.44, S 2.44, Q 1.32, C 2.16, W 1.59, R 1.87, L 4.8, V 3.23, P 2.58, Y 2.04, K 1.36
A15: M 2.17, V 2.4, G 1.91, H 2.28, R 1.72, N 1.81, P 2.9, Y 2.12, C 2.1, F 1.91, I 2.05, W 2.02, L 1.63, S 2.52, Q 2.19, K 2.72, E 1.58, D 2.3, T 2.18
R10: G 2.06, A 3.88, K 1.33, E 1.7, P 2.31, H 2.18, Y 1.82, F 4.17, Q 1.36, S 1.59, C 2.7, T 2.09, D 1.94, L 1.55, I 2.61, W 1.75, V 2.29, N 2.34, M 2.19
M19: L 3.14, K 2.17, V 1.79, Q 1.44, H 1.35, F 2.23, E 1.88, D 2.04, W 1.53, I 1.24, S 1.79, N 2.14, P 1.7, T 1.78, R 2.3, Y 1.76, G 2.23, A 1.68
V5: Q 2.19, S 1.43, R 2.27, W 1.77, P 1.73, N 1.8, K 1.84, M 2.54, T 1.98, L 2.01, Y 1.82
K11: M 2.69, P 2.46, C 2.28, H 2.05, G 2, W 2.11, V 1.99, T 2.19, L 2.16, F 1.95, R 1.55, Y 1.64, E 2.07, S 1.58, D 1.39, N 1.45, Q 2.47, A 1.47, I 1.55
A18: T 1.91, L 1.66, G 1.71, P 1.23, E 1.22, R 2.11, Q 1.95, M 2.08, C 1.89, S 2.26, K 2.5, N 3.42, Y 1.18, D 1.96, V 1.84, H 2.85, I 1.69, W 1.68, F 2.15
K13: W 1.95, H 2.38, G 1.37, D 1.56, V 1.26, C 2.01, A 2.04, Y 1.81, E 1.08, P 2.32, L 3.67, M 1.5, F 2.27, T 1.77, R 1.67, S 2.42, I 3.75, Q 2.58, N 2.02
I8: D 3.15, P 2.28, H 2.14, R 2.32, W 2.35, S 3.08, K 2.31, C 2.25, Q 2.47, L 1.65, G 2.23, Y 2.01, A 2.93, N 2.77, E 2.87, T 1.87, F 2.34, M 2.32, V 1.78
R9: Y 2.09, E 2.06, W 2.02, H 1.54, S 1.85, D 2.48, P 2.8, G 2.27, Q 2.5, A 1.82, V 2.42, L 2.12, I 2, T 1.64, N 2.23, M 2.03, K 1.77, C 1.72
E14: N 1.62, Q 1.55, W 2.42, D 1.41, K 2.89, G 1.39, T 1.93, V 1.9, A 2.29, P 1.73, R 1.84, F 2.15, H 1.96, Y 2.17, C 1.58, S 1.8, M 2.1, I 1.85
S23: A 1.64, H 1.67, E 1.7, G 1.68, F 2.09, D 1.72, C 2.27
E20: N 1.88, K 2.08, A 2.07, S 2.53, V 2.52, Y 2.35, W 2.98, D 2.17, G 1.41, M 2.08, R 2.59, I 1.94, F 2.18, P 2.42, H 2.12, T 1.92, C 1.52, Q 1.65, L 1.61
R6: Q 1.84, G 1.76, W 1.81, C 2.07, Y 1.73, H 1.42, A 1.34, P 1.81, I 2.22, D 1.26, N 2.47, F 2.74, K 1.43, T 3.19, M 1.81, V 1.75, S 2.06, E 1.55, L 1.55
K22: F 1.84, W 1.46, P 1.93, C 1.65, S 1.42, Y 1.49, Q 1.67, H 1.57, N 2.29, T 2.3, E 1.87, D 1.8, L 1.97, A 2.4, G 1.83, V 1.55, I 1.71, R 2.41, M 2.34
L17: P 1.77, H 2.11, V 1.47, W 1.7, G 1.7, A 1.85, N 2.18, K 1.97, M 1.86, R 1.9, C 2.16, F 2.12, E 2.09, Y 2.05, S 1.88, Q 1.88, I 2.1, D 1.51, T 2.21

Reference: the supplement of paper PMC10567573
